Source: patent US20050245438A1 (SALK INSTITUTE FOR BIOLOGICAL STUDIES, published 2005)
Numbered stars: 1 amine (or outer) side, 2 acyl side, 3 side chain; on linkers, the order of the positions; unused ones are H or OH. Bridge positions count the residues as written; N and C are the ends. Square brackets hold non-standard residues; d marks the D form. Ends that are not written are not given here. * marks the point of attachment. (2S,3R)βMe2Nal = L-threo-(2S,3R)-β-methyl-2-naphthylalanine, (2S,3R)-2-amino-3-(naphthalen-2-yl)butanoic acid, C[C@H](c1ccc2ccccc2c1)[C@H](N[*:1])C(=O)[*:2]; threo‑(2S,3R)CβMe‑2Nal = threo-(2S,3R)-β-methyl-2-naphthylalanine (L-threo), C[C@H](c1ccc2ccccc2c1)[C@H](N[*:1])C(=O)[*:2]; Phe(4-CH2NH2) = NCc1ccc(C[C@H](N)C(=O)O)cc1; Tyr(127I) = tyrosine iodinated with ^127I; Phe(4-NH2) = Nc1ccc(C[C@H](N)C(=O)O)cc1; 2Nal = N[C@@H](Cc1ccc2ccccc2c1)C(=O)O; Carbamoyl = NC(=O)*

B1: (cyclo)Cbm-Tyr-Cys-Phe-Ala-Trp-Lys-Thr-Phe-Cys-OH (peptide)
peptide: Carbamoyl-YCFAWKTFC-OH
modifications: disulfide 2-9
notes: synthetic cyclic nonapeptide; also called Peptide No. 13B
B2: (cyclo)H-Cys-Phe-Tyr-threo-(2S,3R)C^βMe-2Nal-Lys-Thr-Phe-Cys-OH (peptide)
peptide: H-CFY[threo‑(2S,3R)CβMe‑2Nal]KTFC-OH
modifications: disulfide 1-8
SMILES: C[C@H](c1ccc2ccccc2c1)[C@@H]1NC(=O)[C@H](Cc2ccc(O)cc2)NC(=O)[C@H](Cc2ccccc2)NC(=O)[C@@H](N)CSSC[C@@H](C(=O)O)NC(=O)[C@H](Cc2ccccc2)NC(=O)[C@H]([C@@H](C)O)NC(=O)[C@H](CCCCN)NC1=O
notes: later-eluting isomer, determined to incorporate the L-threo-β-Me-2Nal residue; also called Peptide No. 17A; 17a
B3: (cyclo)H-Tyr-Cys-Phe-4 Amp-Trp-Lys-Thr-Phe-Cys-OH (peptide)
peptide: H-YCF[Phe(4-CH2NH2)]WKTFC-OH
modifications: disulfide 2-9
notes: here position 7 is 4Amp; also called Peptide 15; Peptide No. 15
B4: (cyclo)Cbm-Tyr-Cys-Phe-Amp-Trp-Lys-Thr-Phe-Cys-OH (peptide)
peptide: Carbamoyl-YCF[Phe(4-CH2NH2)]WKTFC-OH
modifications: disulfide 2-9
notes: synthetic cyclic nonapeptide; also called Peptide No. 15A
B5: (cyclo)Cbm-Tyr-Cys-Phe-4Aph-Trp-Lys-Thr-Phe-Cys-OH (peptide)
peptide: Carbamoyl-YCF[Phe(4-NH2)]WKTFC-OH
modifications: disulfide 2-9
notes: synthetic cyclic nonapeptide; also called Peptide No. 8
B6: des-AA^1,2,4,5,12,13[4Aph^7]-SRIF, (cyclo)H-Cys-Phe-4Aph-Trp-Lys-Thr-Phe-Cys-OH (peptide)
peptide: H-CF[Phe(4-NH2)]WKTFC-OH
modifications: disulfide 1-8
notes: synthetic cyclic octapeptide, free N-terminus and free acid C-terminus; also called Peptide No. 1
B7: (cyclo)H-Cys-Phe-4Aph-Trp-Lys-Thr-Tyr-Cys-OH (peptide)
peptide: H-CF[Phe(4-NH2)]WKTYC-OH
modifications: disulfide 1-8
notes: synthetic cyclic octapeptide; also called Peptide 9; Peptide No. 9
B8: (cyclo)Cbm-Cys-Phe-4Aph-D-Trp-Lys-Thr-Tyr-Cys-OH (peptide)
peptide: Carbamoyl-CF[Phe(4-NH2)][dW]KTYC-OH
modifications: disulfide 1-8
notes: synthetic cyclic octapeptide; also called Peptide No. 10A
B9: (cyclo)H-D-Cys-Phe-Tyr-threo-(2S,3R)C^βMe-2Nal-Lys-Thr-Phe-Cys-OH (peptide)
peptide: H-[dC]FY[(2S,3R)βMe2Nal]KTFC-OH
modifications: disulfide 1-8
SMILES: C[C@H](c1ccc2ccccc2c1)[C@@H]1NC(=O)[C@H](Cc2ccc(O)cc2)NC(=O)[C@H](Cc2ccccc2)NC(=O)[C@H](N)CSSC[C@@H](C(=O)O)NC(=O)[C@H](Cc2ccccc2)NC(=O)[C@H]([C@@H](C)O)NC(=O)[C@H](CCCCN)NC1=O
notes: also called Peptide No. 16A; Peptide 16A
B10: (cyclo)H-Tyr-Cys-Phe-Ala-D-Trp-Lys-Thr-Phe-Cys-OH (peptide)
peptide: H-YCFA[dW]KTFC-OH
modifications: disulfide 2-9
notes: synthetic cyclic nonapeptide; also called Peptide No. 14
B11: des-AA^1,2,4,5,12,13-[Ala^7]SRIF, (cyclo)H-Cys-Phe-Ala-Trp-Lys-Thr-Phe-Cys-OH (peptide)
peptide: H-CFAWKTFC-OH
modifications: disulfide 1-8
SMILES: C[C@@H]1NC(=O)[C@H](Cc2ccccc2)NC(=O)[C@@H](N)CSSC[C@@H](C(=O)O)NC(=O)[C@H](Cc2ccccc2)NC(=O)[C@H]([C@@H](C)O)NC(=O)[C@H](CCCCN)NC(=O)[C@H](Cc2c[nH]c3ccccc23)NC1=O
notes: synthetic cyclic octapeptide; also called Peptide No. 12
B12: (cyclo)H-Cys-Phe-Ala-D-Trp-Lys-Thr-Phe-Cys-OH (peptide)
peptide: H-CFA[dW]KTFC-OH
modifications: disulfide 1-8
SMILES: C[C@@H]1NC(=O)[C@H](Cc2ccccc2)NC(=O)[C@@H](N)CSSC[C@@H](C(=O)O)NC(=O)[C@H](Cc2ccccc2)NC(=O)[C@H]([C@@H](C)O)NC(=O)[C@H](CCCCN)NC(=O)[C@@H](Cc2c[nH]c3ccccc23)NC1=O
notes: synthetic cyclic octapeptide; also called Peptide 11; Peptide No. 11
B13: (cyclo)H-Tyr-Cys-Phe-Ala-Trp-Lys-Thr-Phe-Cys-OH (peptide)
peptide: H-YCFAWKTFC-OH
modifications: disulfide 2-9
notes: synthetic cyclic nonapeptide; also called Peptide No. 13
B14: (cyclo)H-Tyr-Cys-Phe-4Aph-D-Trp-Lys-Thr-Phe-Cys-OH (peptide)
peptide: H-YCF[Phe(4-NH2)][dW]KTFC-OH
modifications: disulfide 2-9
notes: synthetic cyclic nonapeptide; also called Peptide No. 7
B15: (cyclo)H-Cys-Phe-4Aph-D-Trp-Lys-Thr-Phe-Cys-OH (peptide)
peptide: H-CF[Phe(4-NH2)][dW]KTFC-OH
modifications: disulfide 1-8
notes: synthetic cyclic octapeptide; also called Peptide No. 2
B16: (cyclo)H-Tyr-Cys-Phe-4Aph-Trp-Lys-Thr-Phe-Cys-OH (peptide)
peptide: H-YCF[Phe(4-NH2)]WKTFC-OH
modifications: disulfide 2-9
notes: synthetic cyclic nonapeptide; also called Peptide No. 6
B17: (cyclo)H-Cys-Phe-4Aph-2Nal-Lys-Thr-Phe-Cys-OH (peptide)
peptide: H-CF[Phe(4-NH2)][2Nal]KTFC-OH
modifications: disulfide 1-8
SMILES: C[C@@H](O)[C@@H]1NC(=O)[C@H](CCCCN)NC(=O)[C@H](Cc2ccc3ccccc3c2)NC(=O)[C@H](Cc2ccc(N)cc2)NC(=O)[C@H](Cc2ccccc2)NC(=O)[C@@H](N)CSSC[C@@H](C(=O)O)NC(=O)[C@H](Cc2ccccc2)NC1=O
notes: synthetic cyclic octapeptide; also called Peptide 5; Peptide No. 5
B18: (cyclo)Cbm-Cys-Phe-4Aph-Trp-Lys-Thr-Tyr-Cys-OH (peptide)
peptide: Carbamoyl-CF[Phe(4-NH2)]WKTYC-OH
modifications: disulfide 1-8
notes: synthetic cyclic octapeptide; also called Peptide No. 10
B19: (cyclo)Cbm-Cys-Phe-4Aph-Trp-Lys-Thr-Phe-Cys-OH (peptide)
peptide: Carbamoyl-CF[Phe(4-NH2)]WKTFC-OH
modifications: disulfide 1-8
notes: synthetic cyclic octapeptide; also called Peptide No. 3
B20: (cyclo)H-Cys-Phe-Ala-Trp-Lys-Thr-Ala-Cys-OH (peptide)
peptide: H-CFAWKTAC-OH
modifications: disulfide 1-8
notes: synthetic cyclic octapeptide; also called Peptide 12A; Peptide No. 12A
B21: (cyclo)Cys-Phe-Ala-D-Trp-Lys-Thr-Ala-Cys-OH (peptide)
peptide: CFA[dW]KTAC-OH
modifications: disulfide 1-8
notes: synthetic cyclic octapeptide; also called Peptide No. 12B
B22: Peptide No. 13 iodinated with ^127I (peptide)
peptide: [Tyr(127I)]CFAWKTFC
modifications: disulfide 2-9
notes: also called Peptide No. 13A; the I-Tyr^2 analog

molecular target: T1, cloned human SRIF receptor SSTR2 (human, UniProt P30874 1-369); test: radioligand displacement (125I-[Leu8,D-Trp22,Tyr25]SRIF-28), membrane pellet sections
T1 construct: whole, on cells; assayed as cryostat sections of membrane pellets of the transfected cells; also called hSSTR2
T1 sequence (P30874 whole entry): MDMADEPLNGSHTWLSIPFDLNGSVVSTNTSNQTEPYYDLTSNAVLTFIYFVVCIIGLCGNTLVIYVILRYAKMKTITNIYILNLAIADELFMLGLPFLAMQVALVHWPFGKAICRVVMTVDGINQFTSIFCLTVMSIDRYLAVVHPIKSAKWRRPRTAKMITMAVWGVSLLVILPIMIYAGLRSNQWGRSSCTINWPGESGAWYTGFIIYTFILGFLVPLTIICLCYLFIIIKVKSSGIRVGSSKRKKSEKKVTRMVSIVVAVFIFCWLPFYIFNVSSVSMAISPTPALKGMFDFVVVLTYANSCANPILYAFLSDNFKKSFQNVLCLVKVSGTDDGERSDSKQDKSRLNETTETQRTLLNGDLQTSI
Description: (§1) Cells are washed twice with and scraped into ice-cold 0.05 M Tris-HCl (pH 7.4), collected by centrifugation, and homogenized using a rotor/stator/system in the same buffer. After centrifugation at 120 g for 5 min at 4° C., the supernatant is collected and centrifuged again at 48,000 g for 30 min at 4° C. The resulting pellet is resuspended in ice-cold Tris buffer, transferred into a microfuge tube, and centrifuged at 20,000 g for 15 min at 4° C. After withdrawal of the supernatant, the membrane pellet is stored at −80° C.
(§2) Receptor autoradiography is performed on 20 μm thick cryostat sections of the membrane pellets, mounted on microscope slides, and then stored at −20° C. […] Increasing concentrations of the unlabeled peptide are used ranging from 0.1-1000 nM. Unlabeled somatostatin-28 is run in parallel using the same increasing concentrations, as a control. IC₅₀ values are calculated after quantification of the data using a computer-assisted image processing system as known in this art.

Binder | IC50 [nM]
B1 | 700
B2 | 194
B3 | 259
B4 | 118
B5 | 550
B6 | 347
B7 | 170
B8 | 227
B9 | 339
B10 | 57
B11 | 807
B12 | 183
B13 | 622
B14 | 56
B15 | 71
B16 | 260

molecular target: T2, cloned human SRIF receptor SSTR1 (human, UniProt P30872 1-391); test: as above
T2 construct: whole, on cells; also called hSSTR1
T2 sequence (P30872 whole entry): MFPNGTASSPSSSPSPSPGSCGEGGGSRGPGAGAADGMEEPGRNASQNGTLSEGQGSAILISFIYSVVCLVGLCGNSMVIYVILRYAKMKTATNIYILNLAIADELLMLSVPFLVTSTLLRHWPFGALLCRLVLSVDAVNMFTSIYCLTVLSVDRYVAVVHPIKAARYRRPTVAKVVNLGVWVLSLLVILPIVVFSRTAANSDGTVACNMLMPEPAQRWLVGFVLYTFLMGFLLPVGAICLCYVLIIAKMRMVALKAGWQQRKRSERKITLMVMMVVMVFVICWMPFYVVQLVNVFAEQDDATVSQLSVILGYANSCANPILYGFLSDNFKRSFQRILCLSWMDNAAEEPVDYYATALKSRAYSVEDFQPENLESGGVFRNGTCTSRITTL
Description: as §1, §2

Binder | IC50 [nM]
B17 | ~1100
B5 | 347
B6 | 213
B7 | 327
B18 | 757
B10 | 330
B19 | 650
B14 | 517
B15 | 450
B16 | 270

molecular target: T3, cloned human SRIF receptor SSTR4 (human, UniProt P31391 1-388); test: as above
T3 construct: whole, on cells; assayed as cryostat sections of membrane pellets of the transfected cells; also called hSSTR4
T3 sequence (P31391 whole entry): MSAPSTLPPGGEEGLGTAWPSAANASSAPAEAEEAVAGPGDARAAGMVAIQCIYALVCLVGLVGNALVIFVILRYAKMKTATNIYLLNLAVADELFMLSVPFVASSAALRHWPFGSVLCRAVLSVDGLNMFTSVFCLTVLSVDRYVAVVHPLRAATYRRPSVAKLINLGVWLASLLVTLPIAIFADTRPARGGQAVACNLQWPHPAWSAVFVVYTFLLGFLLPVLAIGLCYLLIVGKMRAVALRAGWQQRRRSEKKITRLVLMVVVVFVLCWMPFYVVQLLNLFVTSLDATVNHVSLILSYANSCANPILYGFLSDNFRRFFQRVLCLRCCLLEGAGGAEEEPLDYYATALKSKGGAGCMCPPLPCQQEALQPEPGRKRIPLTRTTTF
Description: as §1, §2

Binder | IC50 [nM]
B1 | 2.36
B2 | 2.8
B3 | 2.4
B4 | 3.2
B17 | 2.9
B5 | 1.2
B6 | 1.2
B7 | 1.1
B18 | 3
B8 | 4.3
B9 | 3.5
B10 | 1.1
B11 | 0.84
B12 | 0.98
B20 | 3.5
B21 | 9.5
B22 | 3.5
B13 | 1.98
B19 | 1.46
B14 | 1.2
B15 | 0.88
B16 | 1.9

molecular target: T4, cloned human SRIF receptor SSTR3 (human, UniProt P32745 1-418); test: as above
T4 construct: whole, on cells; assayed as cryostat sections of membrane pellets of the transfected cells; also called hSSTR3
T4 sequence (P32745 whole entry): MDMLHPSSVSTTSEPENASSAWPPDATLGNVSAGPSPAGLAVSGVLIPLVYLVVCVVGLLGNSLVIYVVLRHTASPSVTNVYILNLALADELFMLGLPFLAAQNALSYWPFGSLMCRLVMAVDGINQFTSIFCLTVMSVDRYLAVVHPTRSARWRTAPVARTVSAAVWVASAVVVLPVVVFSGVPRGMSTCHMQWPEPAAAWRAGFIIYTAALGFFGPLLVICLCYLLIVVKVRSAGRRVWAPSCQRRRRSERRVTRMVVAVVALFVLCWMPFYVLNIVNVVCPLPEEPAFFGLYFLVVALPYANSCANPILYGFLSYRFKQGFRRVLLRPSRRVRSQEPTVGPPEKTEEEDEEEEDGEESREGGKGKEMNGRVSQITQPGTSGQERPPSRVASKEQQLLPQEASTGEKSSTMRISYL
Description: as §1, §2

Binder | IC50 [nM]
B1 | 980
B2 | 825
B3 | 326
B4 | 197
B17 | 630
B5 | 210
B9 | 664
B10 | 347
B11 | 750
B12 | 897
B22 | 1020
B13 | 621
B19 | 780
B14 | 263
B15 | 271
B16 | 135

molecular target: T5, cloned human SRIF receptor SSTR5 (human, UniProt P35346 1-364); test: as above
T5 construct: whole, on cells; assayed as cryostat sections of membrane pellets of the transfected cells; also called hSSTR5
T5 sequence (P35346 whole entry): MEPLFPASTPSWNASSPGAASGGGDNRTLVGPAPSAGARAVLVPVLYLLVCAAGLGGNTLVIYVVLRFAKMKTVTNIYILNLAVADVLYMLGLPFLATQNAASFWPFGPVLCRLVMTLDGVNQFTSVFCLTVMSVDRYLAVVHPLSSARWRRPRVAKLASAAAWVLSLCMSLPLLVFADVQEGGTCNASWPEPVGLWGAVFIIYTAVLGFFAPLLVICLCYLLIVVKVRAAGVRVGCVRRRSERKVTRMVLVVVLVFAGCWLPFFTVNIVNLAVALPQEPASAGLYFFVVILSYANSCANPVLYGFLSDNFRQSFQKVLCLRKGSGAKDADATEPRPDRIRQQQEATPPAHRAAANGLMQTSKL
Description: as §1, §2

Binder | IC50 [nM]
B2 | 360
B17 | 610
B7 | 240
B18 | 557
B8 | 110
B9 | 668
B11 | 633
B12 | 199
B15 | 30
